Columns and labels:
[1] = target: human glucagon receptor (Glucagon-R) (human, UniProt P47871 26-477); assay: cell-based or functional assay
[2] = target: human glucagon-like peptide 1 receptor (GLP-1R) (human, UniProt P43220 24-463); assay: cell-based or functional assay

human glucagon receptor (Glucagon-R), sequence (P47871 26-477): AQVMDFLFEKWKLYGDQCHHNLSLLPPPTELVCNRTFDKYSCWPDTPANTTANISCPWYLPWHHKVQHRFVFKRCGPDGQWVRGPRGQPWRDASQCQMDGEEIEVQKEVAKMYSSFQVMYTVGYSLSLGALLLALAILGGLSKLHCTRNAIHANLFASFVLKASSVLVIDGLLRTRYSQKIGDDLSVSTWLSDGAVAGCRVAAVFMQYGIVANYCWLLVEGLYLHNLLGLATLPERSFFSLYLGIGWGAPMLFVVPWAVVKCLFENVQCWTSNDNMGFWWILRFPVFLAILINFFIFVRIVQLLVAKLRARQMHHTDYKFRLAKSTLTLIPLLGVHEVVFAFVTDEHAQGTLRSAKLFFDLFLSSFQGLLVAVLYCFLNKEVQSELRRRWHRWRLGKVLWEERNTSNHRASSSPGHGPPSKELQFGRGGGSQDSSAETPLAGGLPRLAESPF

Binder	EC50 values for cAMP generation in HEK293 cells expressing Glucagon receptor [1] [nM]	EC50 values for cAMP generation in HEK293 cells expressing GLP-1 receptor [2] [nM]
HSQGTFTSDYSRYLDEKRARDFIEWLLSA (HELM PEPTIDE1{H.S.Q.G.T.F.T.S.D.Y.S.R.Y.L.D.E.K.R.A.R.D.F.I.E.W.L.L.S.A.[am]}|PEPTIDE2{[CCCCCCCCCCCCCCCC(=O)[*:2]].[gGlu]}$PEPTIDE1,PEPTIDE2,17:R3-2:R2$$$V2.0; SMILES CCCCCCCCCCCCCCCC(=O)N[C@@H](CCC(=O)NCCCC[C@H](NC(=O)[C@H](CCC(=O)O)NC(=O)[C@H](CC(=O)O)NC(=O)[C@H](CC(C)C)NC(=O)[C@H](Cc1ccc(O)cc1)NC(=O)[C@H](CCCNC(=N)N)NC(=O)[C@H](CO)NC(=O)[C@H](Cc1ccc(O)cc1)NC(=O)[C@H](CC(=O)O)NC(=O)[C@H](CO)NC(=O)[C@@H](NC(=O)[C@H](Cc1ccccc1)NC(=O)[C@@H](NC(=O)CNC(=O)[C@H](CCC(N)=O)NC(=O)[C@H](CO)NC(=O)[C@@H](N)Cc1c[nH]cn1)[C@@H](C)O)[C@@H](C)O)C(=O)N[C@@H](CCCNC(=N)N)C(=O)N[C@@H](C)C(=O)N[C@@H](CCCNC(=N)N)C(=O)N[C@@H](CC(=O)O)C(=O)N[C@@H](Cc1ccccc1)C(=O)N[C@H](C(=O)N[C@@H](CCC(=O)O)C(=O)N[C@@H](Cc1c[nH]c2ccccc12)C(=O)N[C@@H](CC(C)C)C(=O)N[C@@H](CC(C)C)C(=O)N[C@@H](CO)C(=O)N[C@@H](C)C(N)=O)[C@@H](C)CC)C(=O)O) [H-HSQGTFTSDYSRYLDE-K(Hexadecanoyl-isoGlu)-RARDFIEWLLSA-NH2 [Compound 7]]	0.06	0.06
HSHGTFTSDYSKYLDEKRAKDFIEWLLSA (HELM PEPTIDE1{H.S.H.G.T.F.T.S.D.Y.S.K.Y.L.D.E.K.R.A.K.D.F.I.E.W.L.L.S.A.[am]}|PEPTIDE2{[CCCCCCCCCCCCCCCC(=O)[*:2]].[gGlu]}$PEPTIDE1,PEPTIDE2,17:R3-2:R2$$$V2.0; SMILES CCCCCCCCCCCCCCCC(=O)N[C@@H](CCC(=O)NCCCC[C@H](NC(=O)[C@H](CCC(=O)O)NC(=O)[C@H](CC(=O)O)NC(=O)[C@H](CC(C)C)NC(=O)[C@H](Cc1ccc(O)cc1)NC(=O)[C@H](CCCCN)NC(=O)[C@H](CO)NC(=O)[C@H](Cc1ccc(O)cc1)NC(=O)[C@H](CC(=O)O)NC(=O)[C@H](CO)NC(=O)[C@@H](NC(=O)[C@H](Cc1ccccc1)NC(=O)[C@@H](NC(=O)CNC(=O)[C@H](Cc1c[nH]cn1)NC(=O)[C@H](CO)NC(=O)[C@@H](N)Cc1c[nH]cn1)[C@@H](C)O)[C@@H](C)O)C(=O)N[C@@H](CCCNC(=N)N)C(=O)N[C@@H](C)C(=O)N[C@@H](CCCCN)C(=O)N[C@@H](CC(=O)O)C(=O)N[C@@H](Cc1ccccc1)C(=O)N[C@H](C(=O)N[C@@H](CCC(=O)O)C(=O)N[C@@H](Cc1c[nH]c2ccccc12)C(=O)N[C@@H](CC(C)C)C(=O)N[C@@H](CC(C)C)C(=O)N[C@@H](CO)C(=O)N[C@@H](C)C(N)=O)[C@@H](C)CC)C(=O)O) [H-HSHGTFTSDYSKYLDE-K(Hexadecanoyl-isoGlu)-RAKDFIEWLLSA-NH2 [Compound 18]]	0.09	0.09
HSQGTFTSDYSKYLDERRAKDFIKWLLSA (HELM PEPTIDE1{H.S.Q.G.T.F.T.S.D.Y.S.K.Y.L.D.E.R.R.A.K.D.F.I.K.W.L.L.S.A.[am]}|PEPTIDE2{[CCCCCCCCCCCCCCCC(=O)[*:2]].[gGlu]}$PEPTIDE1,PEPTIDE2,24:R3-2:R2$$$V2.0; SMILES CCCCCCCCCCCCCCCC(=O)N[C@@H](CCC(=O)NCCCC[C@H](NC(=O)[C@@H](NC(=O)[C@H](Cc1ccccc1)NC(=O)[C@H](CC(=O)O)NC(=O)[C@H](CCCCN)NC(=O)[C@H](C)NC(=O)[C@H](CCCNC(=N)N)NC(=O)[C@H](CCCNC(=N)N)NC(=O)[C@H](CCC(=O)O)NC(=O)[C@H](CC(=O)O)NC(=O)[C@H](CC(C)C)NC(=O)[C@H](Cc1ccc(O)cc1)NC(=O)[C@H](CCCCN)NC(=O)[C@H](CO)NC(=O)[C@H](Cc1ccc(O)cc1)NC(=O)[C@H](CC(=O)O)NC(=O)[C@H](CO)NC(=O)[C@@H](NC(=O)[C@H](Cc1ccccc1)NC(=O)[C@@H](NC(=O)CNC(=O)[C@H](CCC(N)=O)NC(=O)[C@H](CO)NC(=O)[C@@H](N)Cc1c[nH]cn1)[C@@H](C)O)[C@@H](C)O)[C@@H](C)CC)C(=O)N[C@@H](Cc1c[nH]c2ccccc12)C(=O)N[C@@H](CC(C)C)C(=O)N[C@@H](CC(C)C)C(=O)N[C@@H](CO)C(=O)N[C@@H](C)C(N)=O)C(=O)O) [H-HSQGTFTSDYSKYLDERRAKDFI-K(Hexadecanoyl-isoGlu)-WLLSA-NH2 [Compound 4]]	0.79	1.31
HXPGTFTSDYSRYLDEKRARDFIEWLLSA (HELM PEPTIDE1{H.[Aib].P.G.T.F.T.S.D.Y.S.R.Y.L.D.E.K.R.A.R.D.F.I.E.W.L.L.S.A.[am]}|PEPTIDE2{[CCCCCCCCCCCCCCCC(=O)[*:2]].[gGlu]}$PEPTIDE1,PEPTIDE2,17:R3-2:R2$$$V2.0; SMILES CCCCCCCCCCCCCCCC(=O)N[C@@H](CCC(=O)NCCCC[C@H](NC(=O)[C@H](CCC(=O)O)NC(=O)[C@H](CC(=O)O)NC(=O)[C@H](CC(C)C)NC(=O)[C@H](Cc1ccc(O)cc1)NC(=O)[C@H](CCCNC(=N)N)NC(=O)[C@H](CO)NC(=O)[C@H](Cc1ccc(O)cc1)NC(=O)[C@H](CC(=O)O)NC(=O)[C@H](CO)NC(=O)[C@@H](NC(=O)[C@H](Cc1ccccc1)NC(=O)[C@@H](NC(=O)CNC(=O)[C@@H]1CCCN1C(=O)C(C)(C)NC(=O)[C@@H](N)Cc1c[nH]cn1)[C@@H](C)O)[C@@H](C)O)C(=O)N[C@@H](CCCNC(=N)N)C(=O)N[C@@H](C)C(=O)N[C@@H](CCCNC(=N)N)C(=O)N[C@@H](CC(=O)O)C(=O)N[C@@H](Cc1ccccc1)C(=O)N[C@H](C(=O)N[C@@H](CCC(=O)O)C(=O)N[C@@H](Cc1c[nH]c2ccccc12)C(=O)N[C@@H](CC(C)C)C(=O)N[C@@H](CC(C)C)C(=O)N[C@@H](CO)C(=O)N[C@@H](C)C(N)=O)[C@@H](C)CC)C(=O)O) [H-H-Aib-PGTFTSDYSRYLDE-K(Hexadecanoyl-isoGlu)-RARDFIEWLLSA-NH2 [Compound 15]]	0.42	0.06
HXQGTFTSDYSKYLDERRAKDFIEWLLSA (HELM PEPTIDE1{H.[Aib].Q.G.T.F.T.S.D.Y.S.K.Y.L.D.E.R.R.A.K.D.F.I.E.W.L.L.S.A.[am]}|PEPTIDE2{[CCCCCCCCCCCCCCCC(=O)[*:2]].[gGlu]}$PEPTIDE1,PEPTIDE2,20:R3-2:R2$$$V2.0; SMILES CCCCCCCCCCCCCCCC(=O)N[C@@H](CCC(=O)NCCCC[C@H](NC(=O)[C@H](C)NC(=O)[C@H](CCCNC(=N)N)NC(=O)[C@H](CCCNC(=N)N)NC(=O)[C@H](CCC(=O)O)NC(=O)[C@H](CC(=O)O)NC(=O)[C@H](CC(C)C)NC(=O)[C@H](Cc1ccc(O)cc1)NC(=O)[C@H](CCCCN)NC(=O)[C@H](CO)NC(=O)[C@H](Cc1ccc(O)cc1)NC(=O)[C@H](CC(=O)O)NC(=O)[C@H](CO)NC(=O)[C@@H](NC(=O)[C@H](Cc1ccccc1)NC(=O)[C@@H](NC(=O)CNC(=O)[C@H](CCC(N)=O)NC(=O)C(C)(C)NC(=O)[C@@H](N)Cc1c[nH]cn1)[C@@H](C)O)[C@@H](C)O)C(=O)N[C@@H](CC(=O)O)C(=O)N[C@@H](Cc1ccccc1)C(=O)N[C@H](C(=O)N[C@@H](CCC(=O)O)C(=O)N[C@@H](Cc1c[nH]c2ccccc12)C(=O)N[C@@H](CC(C)C)C(=O)N[C@@H](CC(C)C)C(=O)N[C@@H](CO)C(=O)N[C@@H](C)C(N)=O)[C@@H](C)CC)C(=O)O) [H-H-Aib-QGTFTSDYSKYLDERRA-K(Hexadecanoyl-isoGlu)-DFIEWLLSA-NH2 [Compound 2]]	0.35	0.36
HXQGTFTSDYSRYLDEKRAKDFIEWLLSA (HELM PEPTIDE1{H.[Aib].Q.G.T.F.T.S.D.Y.S.R.Y.L.D.E.K.R.A.K.D.F.I.E.W.L.L.S.A.[am]}|PEPTIDE2{[CCCCCCCCCCCCCCCC(=O)[*:2]].[gGlu]}$PEPTIDE1,PEPTIDE2,17:R3-2:R2$$$V2.0; SMILES CCCCCCCCCCCCCCCC(=O)N[C@@H](CCC(=O)NCCCC[C@H](NC(=O)[C@H](CCC(=O)O)NC(=O)[C@H](CC(=O)O)NC(=O)[C@H](CC(C)C)NC(=O)[C@H](Cc1ccc(O)cc1)NC(=O)[C@H](CCCNC(=N)N)NC(=O)[C@H](CO)NC(=O)[C@H](Cc1ccc(O)cc1)NC(=O)[C@H](CC(=O)O)NC(=O)[C@H](CO)NC(=O)[C@@H](NC(=O)[C@H](Cc1ccccc1)NC(=O)[C@@H](NC(=O)CNC(=O)[C@H](CCC(N)=O)NC(=O)C(C)(C)NC(=O)[C@@H](N)Cc1c[nH]cn1)[C@@H](C)O)[C@@H](C)O)C(=O)N[C@@H](CCCNC(=N)N)C(=O)N[C@@H](C)C(=O)N[C@@H](CCCCN)C(=O)N[C@@H](CC(=O)O)C(=O)N[C@@H](Cc1ccccc1)C(=O)N[C@H](C(=O)N[C@@H](CCC(=O)O)C(=O)N[C@@H](Cc1c[nH]c2ccccc12)C(=O)N[C@@H](CC(C)C)C(=O)N[C@@H](CC(C)C)C(=O)N[C@@H](CO)C(=O)N[C@@H](C)C(N)=O)[C@@H](C)CC)C(=O)O) [H-H-Aib-QGTFTSDYSRYLDE-K(Hexadecanoyl-isoGlu)-RAKDFIEWLLSA-NH2 [Compound 16]]	0.11	0.06
HSPGTFTSDYSKYLDEKRAKDFIEWLLSA (HELM PEPTIDE1{H.[dS].P.G.T.F.T.S.D.Y.S.K.Y.L.D.E.K.R.A.K.D.F.I.E.W.L.L.S.A.[am]}|PEPTIDE2{[CCCCCCCCCCCCCCCC(=O)[*:2]].[gGlu]}$PEPTIDE1,PEPTIDE2,17:R3-2:R2$$$V2.0; SMILES CCCCCCCCCCCCCCCC(=O)N[C@@H](CCC(=O)NCCCC[C@H](NC(=O)[C@H](CCC(=O)O)NC(=O)[C@H](CC(=O)O)NC(=O)[C@H](CC(C)C)NC(=O)[C@H](Cc1ccc(O)cc1)NC(=O)[C@H](CCCCN)NC(=O)[C@H](CO)NC(=O)[C@H](Cc1ccc(O)cc1)NC(=O)[C@H](CC(=O)O)NC(=O)[C@H](CO)NC(=O)[C@@H](NC(=O)[C@H](Cc1ccccc1)NC(=O)[C@@H](NC(=O)CNC(=O)[C@@H]1CCCN1C(=O)[C@@H](CO)NC(=O)[C@@H](N)Cc1c[nH]cn1)[C@@H](C)O)[C@@H](C)O)C(=O)N[C@@H](CCCNC(=N)N)C(=O)N[C@@H](C)C(=O)N[C@@H](CCCCN)C(=O)N[C@@H](CC(=O)O)C(=O)N[C@@H](Cc1ccccc1)C(=O)N[C@H](C(=O)N[C@@H](CCC(=O)O)C(=O)N[C@@H](Cc1c[nH]c2ccccc12)C(=O)N[C@@H](CC(C)C)C(=O)N[C@@H](CC(C)C)C(=O)N[C@@H](CO)C(=O)N[C@@H](C)C(N)=O)[C@@H](C)CC)C(=O)O) [H-H-DSer-PGTFTSDYSKYLDE-K(Hexadecanoyl-isoGlu)-RAKDFIEWLLSA-NH2 [Compound 21]]	0.21	0.08
